Assay results taken from EP4269437A1.
Values joined by “and” are separate entries in the source; they are usually repeats but may differ in a detail not shown here. Equal values may be shown once.

B1: NB182 (Fc fusion, not shown: a dimerising Fc or GST)
VHH: QVQLVESGGGLVQAGGSLRLSCAASGDTSFISAAGWYRQAPGKERELVAAITNTGITYYPDSVKGRFTISRDNAKNTVYLQMNNLKPEDTAVYYCNAGAPPPGGLGYDESDYWGQGTQVTVSS
B2: NB194 (Fc fusion, not shown: a dimerising Fc or GST)
VHH: QVQLVETGGGLVRAGGSLRLSCTASGRPFSIYDMGWFRQAPDKERESVAVINLSRGDTYYADSVKGRFTISLDSAKNTVYLQMNSLKPEDTAVYSCGVDRRQYGLGIPPLADHWGQGTQVTVSS
B3: NB172 (VHH)
VHH: EVQLVESGGGLVQAGGSLRLSCTASGDTRLASAMGWYRQAPGKERELVAVITNSGLTHYADSVEGRFTISRDSAKNTVYLQMNSLKPEDTAVYYCNAGAPPPGGLGYDESDYWDQGTQVTVSS
B4: NB173 (VHH)
VHH: QVQLQESGGGLVQAGGSLRLSCAASGRSFNSYAMGWFRQAPGKEREFVAAISQNGGTQGYAEAVKDRFTISRDNTNKVVALQMNSLKPEDTAAYYCAADGDASDISYAPPRDYEYDYWGQGTQVTVSS
B5: NB189 (VHH)
VHH: QVKLEESGGGLVQAGGSLRLSCTASGGTFNSYAMGWFRQAPGKERESVAAINLSRGNTYYADSVKGRFTISRDNAKNTVYLQMNSLKPEDTAVYHCGVDRRQYGLGIPPLADHWGQGTQVTVSS
B6: NB192 (VHH)
VHH: EVQLVESGGGLVQAGGSLRLSCAASGRTFNGYGMGWFRQAPGKEREFVAAISWRDSSKYYADSVRDRFTASRDNAKNTVYLQMNSLKPEDTAVYYCRPYSDYVTYDPYDYDAWGQGTQVTVSS
B7: NB195 (VHH)
VHH: EVQVVESGGGLVQAGGSLRLSCAASGDTILISAIGWYRQAPGKVRELVAAITNSGVTYYTDSVKGRFTISRDNAKNTVYLQMDSLKPEDTAVYYCNAGGPPPGGLGYDESDYWGPGTHVTVSS
B8: NB196 (VHH)
VHH: QVQLVETGGGLVQAGGSLRLSCTASGDTNLFSAMGWHRQAPGKERELVAAITNSGMTYYADVVKGRFTLSRDNAKNTVYLQMNSLKPEDTAVYYCNAGAPPPGGFGYDESDYWGQGTQVTVSS
B9: NB197 (VHH)
VHH: QVQLQESGGGLVQPGGSLRLSCAASGFTLDDHSIGWFRQAPGKEREPVSCISTSDGRTYYEDSVKGRFTISRDKAKNTVYLQMDSLKPEDTAVYYCTTDVACYSDYDPSFRFWGQGTQVTVSS
B10: NB200 (VHH)
VHH: QVQLVESGGGLVQAGGSLTLSCAASGRTFNSYAMGWFRQAPGKEREFVAAISQNGGSQGYAEAVKDRFTISRDNTNKVVALQMNSLKPEDTAAYYCAADGDASDRSYAPPRDYEYEYWGQGTQVTVSS
B11: NB202 (VHH)
VHH: EVQVVESGGGLVQAGGSLRLSCTASGDTRLASAMGWYRQAPGKERELVAAITNSGLTYYADSVEGRFTISRDSAKNTVYLQMNSLKPEDTAVYYCNAGAPPPGGLGYDESDYWGQGTQVTVSS
B12: NB205 (VHH)
VHH: EVQLVESGGGLVQVGDSLRLSCAASGRTFSSVPMGWFRQAPGNQREFVAAISKSGGSAGYADSVKDRSTISRDNAKNTIYLQMNSLKPEDTAVYYCAASSFDFCSTHGCYDYWGQGTQVTISS
B13: NB209 (VHH)
VHH: EVQVVESGGGLVQTGGSLRLSCAASGDTALFSAVGWYRQAPGKERELVAALTNTGITYYADSVEGRFTIFRDNAKNTVYLQMNSLKPEDTAVYYCNAGAPPPGGLGYDESDYWGQGTQVTVSS
B14: NB211 (VHH)
VHH: EVQVVETGGGLAQAGGSLRLSCAASGRTFSGYTVGWYRQSPGKEREFVAAISYSGGSTDYADSVKGRFTISRDNANNTVYLQMGSLKAEDTAVYYCNRVIRGTRDPSIYYVMDYWGKGTLVTVSS
B15: NB215 (VHH)
VHH: EVQVVESGGGLVQAGDSLRLSCAASGGTISGYEMGWFRQAPGKEREFVAGISRNGRSTGYSDSAKDRFTISRDNAKNTVYLQMNSLKPEDTAVYYCAAGLKADYGDSYVDTSTRNYNYWGQGTQVTVSS
B16: NB216 (VHH)
VHH: QVQLVESGGGLVRAGDSLTLSCAASGRTFSSVPMGWFRQAPGNQREFVAAISKSGGSAGYADSVKDRSTISRDNAKNTIYLQMNSLKPEDTAVYYCAASSYDFCSTHGCYDYWGQGTQVTISS
B17: NB218 (VHH)
VHH: QLQLVESGGGLVQAGDSLRLSCAASGRTFSSIAMGWFRQAPGKEREFVAAISRSGGSAGYADSVKDRSTIVRDNTKNTVYLQMNSLKPEDTAVYFCAASDYDFCSTHGCYDYWGQGTQVTISS
B18: NB220 (VHH)
VHH: QVQLQESGGGLLQAGDSLRLSCIVSGRTFSSYAIGWFRQAPGKEREFVAGINWSGRSQYYSESVKDRFTVSIDNAKNTVYLQMNSLKPEDTAVYYCAAERHLGVPTVRDDEYDDWGQGTQVTVSS

Columns and labels:
[1] = target: PD-1 (UniProt Q15116); experiment: ELISA, TG1 supernatant on coated PD-1, anti-c-myc HRP
Target sequence in this assay (Q15116 25-170 limits assumed): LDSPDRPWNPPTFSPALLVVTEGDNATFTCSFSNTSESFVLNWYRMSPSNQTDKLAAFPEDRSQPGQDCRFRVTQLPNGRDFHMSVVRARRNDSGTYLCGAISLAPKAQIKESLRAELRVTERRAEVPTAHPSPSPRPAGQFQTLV

[2] = target: cynomolgus monkey PD-1 protein (cynomolgus monkey) (UniProt B0LAJ3); experiment: ELISA on coated protein, anti-human Fc HRP
[3] = target: PD-1 (CD28 family protein, ACROBiosystems) (UniProt Q15116); experiment: ELISA on coated protein, anti-human Fc HRP
[4] = target: PD-1 (UniProt Q15116); experiment: ELISA on coated protein, anti-human Fc HRP
Target sequence in this assay (Q15116 25-167 limits assumed): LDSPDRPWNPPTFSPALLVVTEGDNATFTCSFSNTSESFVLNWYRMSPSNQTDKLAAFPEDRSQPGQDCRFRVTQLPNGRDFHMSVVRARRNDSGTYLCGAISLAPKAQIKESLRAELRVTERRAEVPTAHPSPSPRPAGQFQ

[5] = target: PD-1 (UniProt Q15116); experiment: blocking ELISA, clone supernatant, competitor PD-L1.hFc detected with anti-human Fc HRP
Target sequence in this assay (Q15116 25-170 limits assumed): as the sequence (Q15116 25-170 limits assumed) above

PD-1 (CD28 family protein, ACROBiosystems), sequence (Q15116 25-167 limits assumed): as the sequence (Q15116 25-167 limits assumed) above
cynomolgus monkey PD-1 protein (cynomolgus monkey), sequence (B0LAJ3 entry or part of it limits assumed): as the sequence (Q15116 25-170 limits assumed) above, with D2E, P10A, V19L, T35A, Q75R, T144A counted along it

| Binder | OD450, clone binding with PD-1 [1] [OD450] | ELISA (OD) [2] | ELISA (OD) [3] | ELISA (OD) [4] | OD450, PD-L1 binding with PD-1 [5] [OD450] |
| --- | --- | --- | --- | --- | --- |
| B1 | 3.08 | 2.07 OD and 2.08 OD and 1.95 OD | 2.06 OD and 2.09 OD and 2.29 OD | 2.17 OD and 2.13 OD and 2.1 OD | 0.213 |
| B2 | 2.83 | 2.23 OD and 2.17 OD and 2.1 OD | 2.03 OD and 1.96 OD and 2.27 OD | 2.22 OD and 1.95 OD and 2.11 OD | 0.152 |
| B3 | 3.05 | – | – | – | 2.17 |
| B4 | 2.97 | – | – | – | 0.794 |
| B5 | 2.97 | – | – | – | 2.34 |
| B6 | 2.65 | – | – | – | 2.24 |
| B7 | 3.13 | – | – | – | 2.24 |
| B8 | 3.39 | – | – | – | 2.49 |
| B9 | 2.66 | – | – | – | 2.27 |
| B10 | 2.31 | – | – | – | 2.48 |
| B11 | 3.04 | – | – | – | 0.723 |
| B12 | 2.25 | – | – | – | 2.2 |
| B13 | 3.22 | – | – | – | 2.04 |
| B14 | 2.71 | – | – | – | 2.21 |
| B15 | 3.29 | – | – | – | 1.27 |
| B16 | 2.75 | – | – | – | 2.45 |
| B17 | 2.62 | – | – | – | 2.32 |
| B18 | 2.38 | – | – | – | 2.21 |
